Target: TolB construct MV37 (TolB Δ1–22) (E. coli) (UniProt P0A855)
Assay: SPR

Substance: TolAIII construct YZ74 (TolAIII Y352H,V407E) (domain or fragment)
- Kd: 23.6 µM

Substance: TolAIII construct YZ48 (wild-type TolAIII) (domain or fragment)
- Kd: 4.1 µM

— paper PMC2707214
